Test results as given in PMC3443293 (Nature structural & molecular biology, 2012).

B4: human nectin-1 ectodomain (D1-D3) (domain or fragment)
chain: QVVQVNDSMYGFIGTDVVLHCSFANPLPSVKITQVTWQKSTNGSKQNVAIYNPSMGVSVLAPYRERVEFLRPSFTDGTIRLSRLELEDEGVYICEFATFPTGNRESQLNLTVMAKPTNWIEGTQAVLRAKKGQDDKVLVATCTSANGKPPSVVSWETRLKGEAEYQEIRNPNGTVTVISRYRLVPSREAHQQSLACIVNYHMDRFKESLTLNVQYEPEVTIEGFDGNWYLQRMDVKLTCKADANPPATEYHWTTLNGSLPKGVEAQNRTLFFKGPINYSLAGTYICEATNPIGTRSGQVEVNITEFP
modifications: natively glycosylated (N-linked glycans)

Assays:
[1] = target: human nectin-3 ectodomain (D1-D3) (human, UniProt Q9NQS3 58-359, natively glycosylated (N-linked glycans)); test: SPR
AUC = target: the molecule itself; test: AUC
[2] = target: B4; test: AUC
crystal structure = target: the molecule itself; test: crystal structure

B1: human nectin-2 ectodomain (D1-D3) (domain or fragment)
chain: QDVRVQVLPEVRGQLGGTVELPCHLLPPVPGLYISLVTWQRPDAPANHQNVAAFHPKMGPSFPSPKPGSERLSFVSAKQSTGQDTEAELQDATLALHGLTVEDEGNYTCEFATFPKGSVRGMTWLRVIAKPKNQAEAQKVTFSQDPTTVALCISKEGRPPARISWLSSLDWEAKETQVSGTLAGTVTVTSRFTLVPSGRADGVTVTCKVEHESFEEPALIPVTLSVRYPPEVSISGYDDNWYLGRTDATLSCDVRSNPEPTGYDWSTTSGTFPTSAVAQGSQLVIHAVDSLFNTTFVCTVTNAVGMGRAEQVIFVRETP
modifications: natively glycosylated
binding result [1]: binds
Kd (AUC): 0.392 µM
stoichiometry N (AUC): 2

B2: mouse nectin-4 ectodomain (D1-D3) (domain or fragment)
chain: GELETSDVVTVVLGQDAKLPCFYRGDPDEQVGQVAWARVDPNEGIRELALLHSKYGLHVNPAYEDRVEQPPPPRDPLDGSVLLRNAVQADEGEYECRVSTFPAGSFQARMRLRVLVPPLPSLNPGPPLEEGQGLTLAASCTAEGSPAPSVTWDTEVKGTQSSRSFTHPRSAAVTSEFHLVPSRSMNGQPLTCVVSHPGLLQDRRITHTLQVAFLAEASVRGLEDQNLWQVGREGATLKCLSEGQPPPKYNWTRLDGPLPSGVRVKGDTLGFPPLTTEHSGVYVCHVSNELSSRDSQVTVEVLDPEDPG
modifications: natively glycosylated
Kd (AUC): 278 µM
stoichiometry N (AUC): 2

B3: human nectin-1 ectodomain (D1-D3) F129D (domain or fragment)
chain: QVVQVNDSMYGFIGTDVVLHCSFANPLPSVKITQVTWQKSTNGSKQNVAIYNPSMGVSVLAPYRERVEFLRPSFTDGTIRLSRLELEDEGVYICEFATDPTGNRESQLNLTVMAKPTNWIEGTQAVLRAKKGQDDKVLVATCTSANGKPPSVVSWETRLKGEAEYQEIRNPNGTVTVISRYRLVPSREAHQQSLACIVNYHMDRFKESLTLNVQYEPEVTIEGFDGNWYLQRMDVKLTCKADANPPATEYHWTTLNGSLPKGVEAQNRTLFFKGPINYSLAGTYICEATNPIGTRSGQVEVNITEFP
modifications: natively glycosylated
Kd (AUC): 820 µM
stoichiometry N (AUC): 2

B4
binding result [1]: binds
Kd (AUC): 17.5 µM
stoichiometry N (AUC): 2

B5: mouse nectin-2 D1-2 fragment (domain or fragment)
chain: QDVRVRVLPEVRGRLGGTVELPCHLLPPTTERVSQVTWQRLDGTVVAAFHPSFGVDFPNSQFSKDRLSFVRARPETNADLRDATLAFRGLRVEDEGNYTCEFATFPNGTRRGVTWLRVIAQPENHAEAQEVTIGPQSVAVARCVSTGGRPPARITWISSLGGEAKDTQEPGIQAGTVTIISRYSLVPVGRADGVKVTCRVEHESFEEPILLPVTLSVRY
modifications: natively glycosylated (N-linked glycans)
Kd (AUC): 7.62 µM
stoichiometry N (AUC): 2

B6: mouse nectin-2 ectodomain (D1-D3) (domain or fragment)
chain: QDVRVRVLPEVRGRLGGTVELPCHLLPPTTERVSQVTWQRLDGTVVAAFHPSFGVDFPNSQFSKDRLSFVRARPETNADLRDATLAFRGLRVEDEGNYTCEFATFPNGTRRGVTWLRVIAQPENHAEAQEVTIGPQSVAVARCVSTGGRPPARITWISSLGGEAKDTQEPGIQAGTVTIISRYSLVPVGRADGVKVTCRVEHESFEEPILLPVTLSVRYPPEVSISGYDDNWYLGRSEAILTCDVRSNPEPTDYDWSTTSGVFPASAVAQGSQLLVHSVDRMVNTTFICTATNAVGTGRAEQVILVRESP
modifications: natively glycosylated
Kd (AUC): 1.09 µM
stoichiometry N (AUC): 2

B7: human nectin-4 ectodomain (D1-D3) (domain or fragment)
chain: GELETSDVVTVVLGQDAKLPCFYRGDSGEQVGQVAWARVDAGEGAQELALLHSKYGLHVSPAYEGRVEQPPPPRNPLDGSVLLRNAVQADEGEYECRVSTFPAGSFQARLRLRVLVPPLPSLNPGPALEEGQGLTLAASCTAEGSPAPSVTWDTEVKGTTSSRSFKHSRSAAVTSEFHLVPSRSMNGQPLTCVVSHPGLLQDQRITHILHVSFLAEASVRGLEDQNLWHIGREGAMLKCLSEGQPPPSYNWTRLDGPLPSGVRVDGDTLGFPPLTTEHSGIYVCHVSNEFSSRDSQVTVDVLDPQ
modifications: natively glycosylated
Kd (AUC): 153 µM
stoichiometry N (AUC): 2
binding result [2]: binds

B8: human nectin-4 D1-2 fragment (domain or fragment)
chain: GELETSDVVTVVLGQDAKLPCFYRGDSGEQVGQVAWARVDAGEGAQELALLHSKYGLHVSPAYEGRVEQPPPPRNPLDGSVLLRNAVQADEGEYECRVSTFPAGSFQARLRLRVLVPPLPSLNPGPALEEGQGLTLAASCTAEGSPAPSVTWDTEVKGTTSSRSFKHSRSAAVTSEFHLVPSRSMNGQPLTCVVSHPGLLQDQRITHILHVS
binding result (crystal structure): binds

B9: mouse nectin-1 ectodomain (D1-D3) (domain or fragment)
chain: QVVQVNDSMYGFIGTDVVLHCSFANPLPSVKITQVTWQKASNGSKQNMAIYNPTMGVSVLPPYEKRVEFLRPSFIDGTIRLSGLELEDEGMYICEFATFPTGNRESQLNLTVMAKPTNWIEGTRAVLRARKGQDDKVLVATCTSANGKPPSAVSWETRLKGEAEYQEIRNPNGTVTVISRYRLVPSREAHRQSLACIVNYHLDRFRESLTLNVQYEPEVTIEGFDGNWYLQRTDVKLTCKADANPPATEYHWTTLNGSLPKGVEAQNRTLFFRGPITYSLAGTYICEATNPIGTRSGQVEVNITEFP
modifications: natively glycosylated
Kd (AUC): 22.6 µM
stoichiometry N (AUC): 2
